The values that follow are results of earlier work, collected in paper PMC3826259.

One may read the Kd as the constant that tells how readily two partners part at equilibrium.

Series [1] concerns the target HIV-1 protease mature PR (Human immunodeficiency virus 1) (UniProt O93215).
Series [2] deals with p6*-PR precursor p6*-PR (Human immunodeficiency virus 1) (UniProt O93215).

For the substance “HIV-1 protease mature PR (from UniProt O93215)”, the Kd in series [1] was less than 5 nM.

As to “p6*-PR precursor p6*-PR (from UniProt O93215)”, in series [2], the Kd is 700 nM.
